According to patent US20090197798A1 (NATIONAL TAIWAN UNIVERSITY, published 2009):
Bridges are numbered along the chain shown (N, C = ends). Where no end group is shown, it is not given here.

T1: Recombinant soluble NRP1 (sNRP1) protein containing His6 and c-Myc domain tags (human, UniProt O14786-2 22-644, limits assumed)
T1 construct: Expressed in NIH-3T3 cells, purified from conditioned medium by ammonium sulfate precipitation and Ni-NTA; also called recombinant human sNRP1; recombinant NRP1; not shown: His6 and c-Myc tags
T1 sequence (looked up): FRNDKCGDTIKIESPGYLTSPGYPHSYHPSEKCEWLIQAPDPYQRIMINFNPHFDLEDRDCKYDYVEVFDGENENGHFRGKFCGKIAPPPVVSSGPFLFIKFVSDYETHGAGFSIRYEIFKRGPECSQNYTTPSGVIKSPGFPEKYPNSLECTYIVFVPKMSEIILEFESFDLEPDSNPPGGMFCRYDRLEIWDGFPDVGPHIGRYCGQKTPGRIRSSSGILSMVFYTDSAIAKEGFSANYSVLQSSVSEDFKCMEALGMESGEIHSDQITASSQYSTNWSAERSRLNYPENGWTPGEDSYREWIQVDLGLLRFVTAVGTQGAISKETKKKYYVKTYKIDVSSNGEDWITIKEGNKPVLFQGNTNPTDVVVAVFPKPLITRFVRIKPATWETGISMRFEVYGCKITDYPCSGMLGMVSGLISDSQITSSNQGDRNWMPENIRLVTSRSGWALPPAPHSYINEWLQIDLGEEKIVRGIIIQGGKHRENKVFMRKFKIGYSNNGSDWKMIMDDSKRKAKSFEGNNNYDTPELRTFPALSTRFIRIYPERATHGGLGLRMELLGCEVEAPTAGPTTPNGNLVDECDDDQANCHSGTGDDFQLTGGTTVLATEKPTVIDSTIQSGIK


Assays:
VEGFR2 = molecular target: T2, VEGFR2 (UniProt P35968 20-764, limits assumed); assay: SPR (Biacore), receptor immobilized on sensor chip
T2 construct: also called Flk-1/KDR

[1] = molecular target: T1, Recombinant soluble NRP1 (sNRP1) …; assay: SPR (Biacore), NRP1 immobilized on CM5 chip, peptide injected, 25 C
Method: The binding kinetics of selected peptides with NRP1 were tested using the surface plasmon resonance based measuring system (Biacore AB) at 25° C. Recombinant NRP1 was immobilized on CM5 sensor chips by amine coupling at 400 response units using the amine coupling kit (Biacore) according to the manufacturer's instructions. Binding was detected in resonance units after injecting various concentrations of peptide at a flow rate of 30 μL/min. Sensograms of association and dissociation were recorded and analyzed using BIAevaluation software 3.0 (Biacore AB).
To identify whether any new signature motif can bind and inhibit NRP1-mediated invasion, mammalian cell-expressed NRP1 proteins were used as bait to screen a random cyclic 7-mer peptide library for NRP1-binding peptides. A Ph.D. C7C phage display library containing 10¹¹ random cyclic 7-amino acid peptides was applied for biopanning. After four rounds of screening, 63 clones were isolated. […] A consensus motif, -RRXR-, was found in nine clones by MULTALIN program alignment (Table 3). […] Surface plasmon resonance was used to measure the real-time association and dissociation of the binding of RRXR-containing peptides to NRP1. […] The slightly higher binding affinity of DG1 to NRP1 was due to a more favorable kₐ.

[2] = molecular target: T1, Recombinant soluble NRP1 (sNRP1) …; assay: SPR

T2 sequence (P35968 20-764 limits assumed): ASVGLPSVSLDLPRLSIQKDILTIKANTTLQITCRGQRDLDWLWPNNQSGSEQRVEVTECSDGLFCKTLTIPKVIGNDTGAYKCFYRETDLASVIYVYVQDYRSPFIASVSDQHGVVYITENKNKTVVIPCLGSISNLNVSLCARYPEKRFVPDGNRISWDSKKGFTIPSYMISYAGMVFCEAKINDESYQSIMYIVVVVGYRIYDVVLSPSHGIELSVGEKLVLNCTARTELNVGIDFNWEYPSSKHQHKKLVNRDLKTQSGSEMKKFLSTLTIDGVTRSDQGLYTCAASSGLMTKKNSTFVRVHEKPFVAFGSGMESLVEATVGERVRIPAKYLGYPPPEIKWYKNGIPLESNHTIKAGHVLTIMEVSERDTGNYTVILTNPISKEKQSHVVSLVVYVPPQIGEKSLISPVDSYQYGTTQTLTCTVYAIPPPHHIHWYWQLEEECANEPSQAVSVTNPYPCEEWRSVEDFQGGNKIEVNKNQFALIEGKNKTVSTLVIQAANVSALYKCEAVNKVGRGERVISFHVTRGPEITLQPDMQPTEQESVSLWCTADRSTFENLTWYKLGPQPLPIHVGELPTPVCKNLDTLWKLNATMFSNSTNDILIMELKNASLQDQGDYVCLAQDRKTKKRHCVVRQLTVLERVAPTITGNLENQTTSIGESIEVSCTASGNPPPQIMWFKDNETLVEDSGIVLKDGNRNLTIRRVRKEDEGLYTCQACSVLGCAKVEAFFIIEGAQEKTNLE

Binder | binding result (VEGFR2) | Kd [1] [nM] | koff [1] [s⁻¹] | kon [1] [M⁻¹ s⁻¹] | Kd [2] [nM]
CRRPRMLTC (disulfide 1-9 (inferred), Chemically synthesized cyclic 9-mer (Digitalgene, Taiwan); Its core matches phage clone 4-1) [cyclic peptide DG1 (CRRPRMLTC)] | no binding | 1400 | 0.00172 | 1230 | 
CRSRRIRLC (disulfide 1-9 (inferred), Chemically synthesized cyclic 9-mer (Digitalgene, Taiwan); Its core matches phage clone 4-5) [cyclic peptide DG2 (CRSRRIRLC)] | no binding | 5370 | 0.000663 | 123 | 
Human VEGF165 (ligand, UniProt P15692-4 27-191, looked up, Bought from PeproTech; also called hVEGF) APMAEGGGQNHHEVVKFMDVYQRSYCHPIETLVDIFQEYPDEIEYIFKPSCVPLMRCGGCCNDEGLECVPTEESNITMQIMRIKPHQGQHIGEMSFLQHNKCECRPKKDRARQENPCGPCSERRKHLFVQDPQTCKCSCKNTDSRCKARQLELNERTCRCDKPRR |  |  |  |  | 125
